Measurements reported in patent US6641994B2, “Methods of identifying anti-viral agents” (Pharmacia & Upjohn Company, priority 1999, dated 2003).
Where no end group is shown, it is not given here.

Assays:
[1] = molecular target: T1, CDK2 (Homo sapiens, UniProt P20248+P24941); format: biochemical
T1 construct: hemagglutinin (HA); made in house; host or cells: Sf9 or High Five insect cells, baculovirus co-infection

[2] = molecular target: T2, cyclin A/CDK2 (Homo sapiens, UniProt P20248+P24941); format: biochemical
T2 construct: hemagglutinin (HA); made in house; host or cells: Sf9 or High Five insect cells, baculovirus co-infection

[3] = molecular target: T3, pRb (Homo sapiens, UniProt P06400); experiment: E7 binding assay (GST-E7 on glutathione-agarose beads), pRb
T3 construct: purchased QED Bioscience Inc
T3 sequence (P06400 1-928): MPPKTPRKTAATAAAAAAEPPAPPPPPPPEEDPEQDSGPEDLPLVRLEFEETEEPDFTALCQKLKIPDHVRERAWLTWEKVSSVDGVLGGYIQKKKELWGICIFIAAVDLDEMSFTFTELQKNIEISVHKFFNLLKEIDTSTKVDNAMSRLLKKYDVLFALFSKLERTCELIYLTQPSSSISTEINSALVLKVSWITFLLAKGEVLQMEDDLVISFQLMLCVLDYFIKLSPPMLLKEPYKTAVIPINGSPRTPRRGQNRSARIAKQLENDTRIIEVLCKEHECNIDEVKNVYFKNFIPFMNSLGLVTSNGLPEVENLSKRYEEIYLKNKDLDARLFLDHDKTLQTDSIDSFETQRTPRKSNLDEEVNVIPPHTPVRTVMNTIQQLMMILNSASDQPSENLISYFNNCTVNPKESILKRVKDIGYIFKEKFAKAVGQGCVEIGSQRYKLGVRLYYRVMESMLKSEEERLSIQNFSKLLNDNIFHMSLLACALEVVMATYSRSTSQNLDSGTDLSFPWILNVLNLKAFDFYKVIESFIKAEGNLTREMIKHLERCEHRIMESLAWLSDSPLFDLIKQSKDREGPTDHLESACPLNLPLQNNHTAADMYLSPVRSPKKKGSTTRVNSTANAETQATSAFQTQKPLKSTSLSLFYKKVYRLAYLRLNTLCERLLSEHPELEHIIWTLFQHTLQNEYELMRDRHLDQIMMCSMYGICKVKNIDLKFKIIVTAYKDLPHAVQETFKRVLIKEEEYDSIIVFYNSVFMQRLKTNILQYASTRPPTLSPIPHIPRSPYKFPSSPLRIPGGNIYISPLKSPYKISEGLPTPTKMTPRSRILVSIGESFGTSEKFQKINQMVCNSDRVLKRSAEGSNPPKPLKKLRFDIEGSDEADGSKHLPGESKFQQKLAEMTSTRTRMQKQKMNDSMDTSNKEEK
Procedure: For HPV31E7, the amplification product was subcloned into pGEX-4T-3 previously digested with BamHI, while HPV6b and HPV16 E7 amplification products were subcloned into pGEX-4T-3 previously digested with BamHI and XhoI. Proper orientation was determined using restriction mapping, sequence analysis was carried out using Perkin-Elmer ABI-Prism® technology, and the expression constructs were individually transfected into a JM 109 strain of E. coli. Bacteria in log-growth phase were harvested by centrifugation after a four hour induction with 0.5 mM IPTG at 30° C. […] After extensive washing with PBS, the GST-E7-coupled beads were stored at 4° C. until use. Protein levels were measured using a BioRad protein assay kit, and purified protein preparations were examined by SDS-PAGE followed by Coomassie blue staining and Western blotting. […]
GST-16E7 or GST-31E7 fusion proteins bound to glutathione-agarose beads were incubated with either purified pRb (QED Bioscience Inc.), His-p21, His-p21N, His-p21C, His-p27, His-p27N, His-p27C, or HEK293 cell lysate at 4° C. for two hours in binding buffer containing 20 mM HEPES, pH 7.4, 10 mM KCl, 1 mM EDTA, 1 mM EGTA, 140 mM NaCl, 13% glycerol, 1 mM DTT, and 1× protease inhibitor tablet (Boehringer Mannheim). […] Eluted proteins were separated using 15% SDS-PAGE and the proteins were analyzed by Coomassie blue staining and Western blotting.

T1 sequence (P20248 whole entry, one chain of several): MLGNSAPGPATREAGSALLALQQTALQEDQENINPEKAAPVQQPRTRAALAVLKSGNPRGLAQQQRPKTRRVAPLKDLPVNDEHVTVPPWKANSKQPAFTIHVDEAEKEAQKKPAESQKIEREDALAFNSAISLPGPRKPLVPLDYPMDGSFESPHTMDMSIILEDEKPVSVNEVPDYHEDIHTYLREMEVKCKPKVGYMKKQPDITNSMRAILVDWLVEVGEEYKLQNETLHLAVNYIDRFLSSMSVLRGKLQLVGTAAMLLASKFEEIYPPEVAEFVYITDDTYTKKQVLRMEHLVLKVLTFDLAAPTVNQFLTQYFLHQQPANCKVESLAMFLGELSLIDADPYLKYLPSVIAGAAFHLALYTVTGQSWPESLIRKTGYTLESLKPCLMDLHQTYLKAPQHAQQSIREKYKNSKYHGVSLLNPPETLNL
T2 sequence (P20248 whole entry, one chain of several): as above

For “HPV E7(1-38): HPV16 E7 truncation, residues 1-38, GST fusion (MHGDTPTLHEYMLDLQPETTDLYCYEQLNDSSEEEDEI; also: GST fusion partner left off)”, the “relative kinase activity compared to activity in the presence of full length E7” value (shortened to “relative kinase activity … of full length E7”) [1] was “approximately 72%”.

“GST-16E7(1-27): HPV16 E7 truncation, residues 1-27, GST fusion (MHGDTPTLHEYMLDLQPETTDLYCYEQ; also: GST fusion partner left off)” was tested, and the “relative kinase activity … of full length E7” value [1] was 28.64% and the “relative kinase activity compared to full length E7, repeat experiment” value [1] was 52%.

In the case of “GST: glutathione-S-transferase alone, control for the fusion proteins [reference compound]”, the “effect on cyclin A/CDK2 histone H1 kinase activity” value [2] is reported as “no effect”.

“GST-E7 (20-48): internal HPV16 E7 region, residues 20-48, GST fusion (TDLYCYEQLNDSSEEEDEIDGPAGQAEPD; also: GST fusion partner left off)” was tested, and the “induced kinase activity, level relative to that by full length E7” value [1] was 33%.

“GST-16E7 (16-38): internal HPV16 E7 region, residues 16-38, GST fusion” was tested, and the “induced kinase activity, level relative to that by full length E7” value [1] was 53%.

“HPV E7(1-48): HPV16 E7 truncation, residues 1-48, GST fusion (MHGDTPTLHEYMLDLQPETTDLYCYEQLNDSSEEEDEIDGPAGQAEPD; also: GST fusion partner left off)” was tested, and the “relative kinase activity … of full length E7” value [1] was 73.25%.

With “GST-HPV16-E7(39-98): HPV16 E7 amino terminal deletion, residues 39-98, GST fusion (DGPAGQAEPDRAHYNIVTFCCKCDSTLRLCVQSTHVDIRTLEDLLMGTLGIVCPICSQKP; cysteine pairing not given here; also: GST fusion partner left off)” the “activation of cyclinA/CDK2, % of the activation activity of full length GST-HPV 16 E7” value [2] was 28.6%, the “activation potential, repeat experiment” value [2] was 18% and the “induced kinase activity, level relative to that by full length E7” value [1] was 18%.

“HPV E7(1-15): HPV16 E7 truncation, residues 1-15, GST fusion (MHGDTPTLHEYMLDL; also: GST fusion partner left off)” was tested, and the “relative kinase activity … of full length E7” value [1] was 15%.

B1: HPV E7(1-87): HPV16 E7 truncation, residues 1-87, GST fusion (protein)
chain: MHGDTPTLHEYMLDLQPETTDLYCYEQLNDSSEEEDEIDGPAGQAEPDRAHYNIVTFCCKCDSTLRLCVQSTHVDIRTLEDLLMGTL
modifications: left off: a dimerising Fc or GST
notes: HPV16 E7 truncation, residues 1-87, GST fusion
For B1, the “relative kinase activity … of full length E7” value [1] was 76.67%.

B2: HPV E7(1-69): HPV16 E7 truncation, residues 1-69, GST fusion (protein)
chain: MHGDTPTLHEYMLDLQPETTDLYCYEQLNDSSEEEDEIDGPAGQAEPDRAHYNIVTFCCKCDSTLRLCV
modifications: also: GST fusion partner left off
notes: HPV16 E7 truncation, residues 1-69, GST fusion
In the case of B2, the “relative kinase activity … of full length E7” value [1] is reported as 82.45%.

B3: Δ12; Δ24, 26; Δ31, 32: E7 with combined point mutations Δ12, Δ24, 26 and Δ31, 32 (protein, UniProt P03129 1-98, looked up, variant M12* C24* E26* S31* S32*)
Protein E7: MHGDTPTLHEYLDLQPETTDLYYQLNDEEEDEIDGPAGQAEPDRAHYNIVTFCCKCDSTLRLCVQSTHVDIRTLEDLLMGTLGIVCPICSQKP
modifications: GST fusion
With B3 the “% Control Activation Exp. 2” value [1] was 83.1%.

B4: HPV6b: low risk-derived E7 from HPV6b, expressed as a GST fusion protein (protein)
chain: MHGRHVTLKDIVLDLQPPDPVGLHCYEQLVDSSEDEVDEVDGQDSQPLKQHFQIVTCCCGCDSNVRLVVQCTETDIREVQQLLLGTLNIVCPICAPKT
modifications: left off: a dimerising Fc or GST
With B4 the “activation of CDK2 histone kinase activity” value [1] was 15.8 fold.

B5: GST-31E7: HPV31 E7 protein expressed as a GST fusion protein (protein)
chain: MRGETPTLQDYVLDLQPEATDLHCYEQLPDSSDEEDVIDSPAGQAEPDTSNYNIVTFCCQCKSTLRLCVQSTQVDIRILQELLMGSFGIVCPNCSTRL
modifications: left off: a dimerising Fc or GST
B5 was tested, and the “effect on cyclin A/CDK2 histone H1 kinase activity” value [2] was “significant effect”, the “binding to pRb in HEK 293 cell lysate” value ([3]; HEK 293 cell lysate) was “bound” and the “binding to purified pRb” value ([3]; purified pRb, SDS-PAGE, Coomassie and Western blot) was “bound”.

B6: Δ12; Δ24, 26: E7 with combined point mutations Δ12 and Δ24, 26 (protein, UniProt P03129 1-98, looked up, variant M12* C24* E26*)
Protein E7: MHGDTPTLHEYLDLQPETTDLYYQLNDSSEEEDEIDGPAGQAEPDRAHYNIVTFCCKCDSTLRLCVQSTHVDIRTLEDLLMGTLGIVCPICSQKP
modifications: GST fusion
With B6 the “% Control Activation Exp. 1” value [1] was 85.2% and the “% Control Activation Exp. 2” value [1] was 93.5%.

B7: GST-HPV16-E7(9-98): GST-E7 construct encoding HPV16 amino acids 9-98 (protein)
chain: HEYMLDLQPETTDLYCYEQLNDSSEEEDEIDGPAGQAEPDRAHYNIVTFCCKCDSTLRLCVQSTHVDIRTLEDLLMGTLGIVCPICSQKP
modifications: left off: a dimerising Fc or GST
In the case of B7, the “activation of cyclinA/CDK2, % of the activation activity of full length GST-HPV 16 E7” value [2] is reported as 64%.

B8: GST-HPV16-E7(16-98): GST-E7 construct encoding HPV16 amino acids 16-98 (protein)
chain: QPETTDLYCYEQLNDSSEEEDEIDGPAGQAEPDRAHYNIVTFCCKCDSTLRLCVQSTHVDIRTLEDLLMGTLGIVCPICSQKP
modifications: left off: a dimerising Fc or GST
B8 was tested, and the “activation of cyclinA/CDK2, % of the activation activity of full length GST-HPV 16 E7” value [2] was 53%.
